Data as given in article PMC11099015.
Like-named read-outs stand apart in the source and are kept apart here.

What was measured:
SETD3(1−498) [1] = target: SETD3(1−498) (UniProt Q86TU7); assay: BLI
SETD3(1−498) [2] = target: SETD3(1−498) (UniProt Q86TU7); assay: AUC

CVB3 2A C107A (enzyme) showed a Kd (SETD3(1−498) [1]) of 0.0118 µM.
Substance EV71 2A C110A (enzyme) has a stoichiometry N (SETD3(1−498) [2]) of 1 and a Kd (SETD3(1−498) [1]) of 0.0227 µM.
EV71 2A C110A K70A; H71A; Y72A showed a Kd (SETD3(1−498) [1]; 2A KHY(70-72)AAA at 12.5, 6.25, 3.13, 1.56 and 0.78 µM) of 1.75 µM.
